In patent US20140170136A1 (NVIP, published 2014):

Assays:
[1] = target: T1, complement C1q (from human serum) (human, UniProt P02745 23-245; P02746 28-253; P02747 29-245); assay: ELISA: antibody captured on NGF-coated plate, human serum 1/100, bound C1q detected with anti-C1q-HRP, OD450
T1 construct: mature; Native C1q in human serum diluted 1/100
Procedure: Protein A purified transfectant supernatants from Example 2 were incubated with plates coated with 0.1 ng/mL NGF to capture the antibodies. The plates were washed and then incubated with human serum and bound complement C1q was measured by binding of anti-human C1q polyclonal antibody HRP and developed as above. The binding of C1q to antigen-captured “eqN-HC2+eqN-kLC-1” was compared to a human anti-NGF MAb with human IgG1 Fc domain as positive control and an IgG4 variant as negative control.
Plates were coated with 100 μl/well of 5 μg/ml mouse NGF and blocked with 5% BSA/PBS. Coated wells were incubated for 1 hour at room temperature with cell culture supernatants, containing recombinant equine anti-NGF IgG, diluted in PBS/1% BSA (100 μl/well). The plates were washed and incubated for 1 hour at room temperature with 100 μl/well of human serum diluted 1/100 in veronal buffered saline containing 0.5 mM MgCl₂, 2 mM CaCl2, 0.05% Tween-20, 0.1% gelatin and 0.5% BSA. After washing, plates were incubated with 100 μl of a 1/800 dilution of sheep anti-C1q-HRP (Serotec) in PBS/1% BSA. After washing, plates were developed by the addition of 100 μl TMB substrate (Thermo Scientific). Development was stopped by the addition of 100 μl of 2N H₂SO₄ and absorbance read at 450 nm.

murine NGF = target: T2, murine NGF (mouse, UniProt P01139 122-241); assay: ELISA: CHO supernatant on NGF, goat anti-equine IgG-HRP, OD450, against mock supernatant
T2 construct: Coated on the ELISA plate; also called mouse NGF
T2 sequence (P01139 122-241 limits assumed): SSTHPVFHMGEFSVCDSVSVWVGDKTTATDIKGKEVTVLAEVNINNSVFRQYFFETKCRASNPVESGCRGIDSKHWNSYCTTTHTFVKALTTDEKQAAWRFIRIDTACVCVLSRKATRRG
Procedure: Equinised heavy and light chain cDNAs were transfected into CHO cells, the supernatants harvested and reacted in ELISA format with either equine or murine NGF. Following incubation and wash steps, the bound equine antibody was detected by reactivity with a goat-anti equine IgG specific polyclonal antibody linked to horseradish peroxidase (HRP) and developed using TMB. The optical density of the resulting product was measured at 450 nm and compared with that from mock empty vector transfected supernatant (denoted as “Mock” in FIG. 1). The results are shown in the graph of FIG. 1. Binding to mouse NGF is shown for the HC2 (IgG2 constant domain) equinised antibody (termed eqN-HC2+eqN-kLC-1). In the second part of the graph, binding of the eqN-HC2+eqN-kLC-1 antibody comprising the eqN-kLC-1 light chain and the eqN-HC2 (IgG2) constant chain to equine NGF is shown.

Protein A = target: T3, Protein A (UniProt P38507 37-327); assay: Protein A affinity chromatography of CHO supernatant; antibody in fractions measured by quantitative NGF ELISA
T3 construct: Column resin

T1 sequence (P02745 23-245, chain 1 of 3): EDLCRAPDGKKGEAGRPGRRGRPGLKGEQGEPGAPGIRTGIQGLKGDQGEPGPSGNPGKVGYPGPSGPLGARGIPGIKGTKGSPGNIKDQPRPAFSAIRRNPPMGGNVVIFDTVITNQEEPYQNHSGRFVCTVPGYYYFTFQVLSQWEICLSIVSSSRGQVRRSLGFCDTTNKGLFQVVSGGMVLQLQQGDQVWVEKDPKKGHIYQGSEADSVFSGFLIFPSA
T1 sequence (P02746 28-253, chain 2 of 3): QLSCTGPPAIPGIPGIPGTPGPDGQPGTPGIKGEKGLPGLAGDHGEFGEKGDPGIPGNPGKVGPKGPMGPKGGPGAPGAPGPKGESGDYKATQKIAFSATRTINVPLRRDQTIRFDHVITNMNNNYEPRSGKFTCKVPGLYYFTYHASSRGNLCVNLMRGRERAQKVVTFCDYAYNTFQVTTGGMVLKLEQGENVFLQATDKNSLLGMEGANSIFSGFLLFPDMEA
T1 sequence (P02747 29-245, chain 3 of 3): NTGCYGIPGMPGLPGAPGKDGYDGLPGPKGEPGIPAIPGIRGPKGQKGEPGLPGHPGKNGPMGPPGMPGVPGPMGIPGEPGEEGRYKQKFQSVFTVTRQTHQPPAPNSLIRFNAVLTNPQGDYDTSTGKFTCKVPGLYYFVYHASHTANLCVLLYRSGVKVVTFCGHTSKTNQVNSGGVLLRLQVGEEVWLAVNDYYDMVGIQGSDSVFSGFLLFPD

B1: eqN-HC2+eqN-kLC-1 (equinised αD11 anti-NGF antibody comprising the eqN-kLC-1 light chain and the eqN-HC2 (IgG2) heavy chain) (antibody)
heavy: QVQLKESGPGLVNPSQTLSLTCTVSGFSLTNNNVNWVRQAPGKGLEWVGGVWAGGATDYNSALKSRATITRDTSKSQVFLQMNSLTSEDTAVYYCARDGGYSSSTLYAMDAWGQGILVTVSSASTTAPKYFQLTPSCGITSDATVALGCLVSDYYPEPVTVSWNSGALTSGVHTFPSVLQSSGLYALSSMVTVPASTWTSETYICNVAHPASSTKVDKRIPPCVLSAEGVIPIPSVPKPQCPPYTHSKFLGGPSVFIFPPNPKDALMISRTPVVTCVVVNLSDQYPDVQFSWYVDNTEVHSAITKQREAQFNSTYRVVSVLPIQHQDWLSGKEFKCSVTNVGVPQPISRAISRGKGPSRVPQVYVLPPHPDELAKSKVSVTCLVKDFYPPDISVEWQSNRWPELEGKYSTTPAQLDGDGSYFLYSKLSLETSRWQQVESFTCAVMHEALHNHFTKTDISESLGK
light: DIVMTQSPASLSASLGETVTIECRASEDIYNALAWYQQKPGQSPKLLIYNTDTLHTGVPSRFSGSGSGTDYSLTINSLQSEDVASYFCQHYFHYPRTFGQGTKLELKRDDAKPSAFIFPPSSEELSSGSASVVCLVYGFYPSGATINWKVDGLAKTSSFHSSLTEQDSKDNTYSLSSTLTLPKADYEAHNVYACEVSHKTLSSPLVKSFKRQDC
notes: Tested as CHO transfectant supernatant or after Protein A purification; also called HC2 (IgG2 constant domain) equinised antibody; equinised HC2 antibody
- binding result [1]: no binding
- binding result (murine NGF): binds

B2: HC6 variant of equinised αD11 (equinised anti-NGF antibody with eqN-HC6 heavy chain and equine kappa light chain) (antibody)
heavy: QVQLKESGPGLVNPSQTLSLTCTVSGFSLTNNNVNWVRQAPGKGLEWVGGVWAGGATDYNSALKSRATITRDTSKSQVFLQMNSLTSEDTAVYYCARDGGYSSSTLYAMDAWGQGILVTVSSASTTAPKVFQLASHSAGTSDSTVALGCLVSSYFPEPVTVSWNSGALTSGVHTFPSVRQSSGLYSLSSMVTVPASSLKSQTYICNVAHPASSTKVDKRIVIKEPCCCPKCPGRPSVFIFPPNPKDTLMISRTPEVTCVVVDVSQENPDVKFNWYVDGVEAHTATTKAKEKQDNSTYRVVSVLPIQHQDWRRGKEFKCKVNNRALPAPVERTITKAKGELQDPKVYILAPHREEVTKNTVSVTCLVKDFYPPDINVEWQSNEEPEPEVKYSTTPAQLDGDGSYFLYSKLTVETDRWEQGESFTCVVMHEAIRHTYRQKSITNFPGK
light: B1 light
notes: also called HC6 antibody; type 6 (HC6) antibody
- binding result (Protein A): no binding
